Test results: the DeepSol protein solubility set

assay: soluble on expression in E. coli; label from the status in PepcDB or PDB records

| Sequence | soluble on expression in E. coli |
| --- | --- |
| MSLRFGIGYSATMGVRPNMEDVITFQTYPNDQHLFGLFDGHQGNVAAATSAICLHNELLQNAVNAPDDQLPAAITNCYTAVNQKLKMIGTRDGCTAISAFIRKNKCYTVGIGDSRIVLVKKNSSKRLTVDYKPTMRSEYERLRKCGLTVNSEGRIGRKLAVARTLGDFWCEGPGLYVPPDVSSFEINEEEDLALIIACDGVWDVIQDDDAAEIVRNSENAQDAATTLRNVAFALGSKDNISAMIVFFDSKEGHHHHHH | soluble |
| MASTGVERRKPLENKVALVTASTDGIGLAIARRLAQDGAHVVVSSRKQENVDRTVATLQGEGLSVTGTVCHVGKAEDRERLVAMAVNLHGGVDILVSNAAVNPFFGNIIDATEEVWDKILHVNVKATVLMTKAVVPEMEKRGGGSVLIVSSVGAYHPFPNLGPYNVSKTALLGLTKNLAVELAPRNIRVNCLAPGLIKTNFSQVLWMDKARKEYMKESLRIRRLGNPEDCAGIVSFLCSEDASYITGETVVVGGGTASRL | soluble |
| MRHMMQLKAPFFSDNATDLPFWWEEARPSPVQTDDLPSSTEVAIIGAGFTGLNAALVLARAGKQVSVFDADEPGYGASSRNGGFLGPGWAFFDTGMQYGADTARQIVEESFHSLQHVKDVVAMEKIDCDLKEVGYFKGAMTPRVYDAIGRNMDRIRKIIPCNVYMVPRSEQHKEIGSDLYHGGVAMPGYCGIHPAKYVKGLAEAANRLGVKIYSNARVSDLEGKNGGFSFKVGSRTIAARQILLAANGYSGSLLPHLKRRIIPVGSGLIATEQLPVEVMDRLMPKRQMLAGSQRVVTYYRPSPDNTRIVFGGRVLNMSGAHESAVANAKYIRSLLLAVFPELASAKITNYWHGQLGFTFDHLPHVQTIDGMYFAGGYNGTGVARASWLGSRVAYEMLGSDLGKTVYRNLPFDGRRFYNGKPYFLPLAVWYYGMLDKWDQRLEHHHHHH | not soluble |
| MGSDKIHHHHHHMAQRSILVGQIWHEGHSFNPILTREKDFLFLRGEAVLEEARASSTALSGIVKTAEALGYRCVPSISARARPGGAIEQKVFDNIVDEFVQAARMQDFDAICLDLHGATLAEHTLDTEGYLLSRLREVVGNDIMISLALDLHAYLTPQMVEQATIITSFRTTPHADIEETGVRAMTLLDSLSNETRPPRAIYSLIPFLTRGNDETWSGPLAEIGAAADRWRARSDVVDLSIFNVHPFLDVPGYGQVVLAYDNGSGAAIDACRDLSDMLWKARDEFQEQLMSVDKALEIARTSRQLLALGDQGDRVMGAGPGDSPEIARVALEHFPGLKVAVPVYDPQAVRTAREAGENATVRMAVGGAFTHSVAPLERDWTVRKLCRARFTNIGPYMAGTEADFGDAAVLTCDAVTVIVTTMAPNVHDPAFYEAVGVPLASQQAVVARAANHYKLSFADIARTITVDTPGLTAFKPHQFPFTQARPFYPLDIVQWSFAPLECNKVG | not soluble |
| EVSTTQNDTLKVMTHNVYMLSTNLYPNWGQTERADLIGAADYIKNQDVVILNEVFDNSASDRLLGNLKKEYPNQTAVLGRSSGSEWDKTLGNYSSSTPEDGGVAIVSKWPIAEKIQYVFAKGCGPDNLSNKGFVYTKIKKNDRFVHVIGTHLQAEDSMCGKTSPASVRTNQLKEIQDFIKNKNIPNNEYVLIGGDMNVNKINAENNNDSEYASMFKTLNASVPSYTGHTATWDATTNSIAKYNFPDSPAEYLDYIIASKDHANPSYIENKVLQPKSPQWTVTSWFQKYTYNDYSDHYPVEATISMK | soluble |
| LMGDDKVKKEVGRASWKYFHTLLARFPDEPTPEEREKLHTFIGLYAELYPCGECSYHFVKLIEKYPVQTSSRTAAAMWGCHIHNKVNEYLKKDIYDCATILEDYDCGCSDSDGKRVS | soluble |
| MRIFAVFIFMTYWHLLNAFTVTVPKDLYVVEYGSNMTIECKFPVEKQLDLAALIVYWEMEDKNIIQFVHGEEDLKVQHSSYRQRARLLKDQLSLGNAALQITDVKLQDAGVYRCMISYGGADYKRITVKVNAPYNKINQRILVVDPVTSEHELTCQAEGYPKAEVIWTSSDHQVLSGKTTTTNSKREEKLFNVTSTLRINTTTNEIFYCTFRRLDPEENHTAELVIPELPLIEGRSRGSGLNDIFEAQKIEWHHHHHHHH | soluble |
| TLAVAAGTGAYLIDKRQKQKAKEPALPAKAEDGSEPISQRELSWDDVQPVDIIGLEVGYRLIPLVDRDQGGELLERVKGVRKKLSQDFGFLIPAVHIRDNLELTPNSYRITLMGVAVGEAEIRPDQELAINPGQVYGMIDGEPTMDPAFGLEAVWIREEQREHAQALGYTVVDSSTVLATHLSQLLTNNASQLIGHEEVQNLLEMLGRSAPKLVENFVPDQLQLGVVVKVLQNLLNEAIPIRDIRTIVQTLAEYSSKSQEPDILTAAVRISLKRLIVQEINGIEPELPVITLIPELEQILHQTMQASGGESAGIEPGLAERLQSSLSHATQEQELKGEPAVLLTSGVLRSTLAKFVKNTIPNLRVLSYQEIPDEKQIRIVQAVGN | not soluble |
| MNNIQTNTRDQDSLEYILQLELDNIRLFLELLEHERNLLAAGNLDDLALLVADKDRLIDQFARLDMRRNRFLNAAGLPEGTQGMNAWVSGSDEESTVARDWEELLGLADLAKQLNQTNAVITSSWLQYTRRTLNALHSAAGRPPLYNTKGQTT | not soluble |
| MERITVTLGERSYPITIAAGLFNEPASFLPLKSGDQVMLVTNETLAPLYLDKVRGVLERAGVNVDSVILPDGEQYKSLTVLDTVFTALLKKPHGRDTTLVALGGGVIGDLTGFAAASYQRGVRFIQVPTTLLSQVDSSVGGKTAVNHPLGKNMIGAFYQPASVVVDLDCLKTLPARELTSGLAEVIKYGIILDADFFTWLEGNLDALLRLDGPAMAYCIRRCCELKAEVVAADEREAGLRALLNLGHTFGHAIEAEMGYGNWLHGEAVAAGIVMAARASERLGQFSSADTQRIIALLERAGLPVNGPCEMSAQDYLPHMLRDKKVLAGELRLVLPLAIGKSEVRGGVSHEVVLSAIADCQQA | not soluble |
| MIPYRQLVRMSHLAARFVGGADVHVVDPLVDLRNVFEQTDQLKIALECRNLTVDVEKVKNEYDEWFETYQKWKQADKESISQLKKELRAKKDGLLNALALPNLVHHAGKKQTPLLKPSKHAQYLAQQGLMRIDKQNHVVHLVGYPVVVQKMIREQLVDLFPGCQPISPSYFARAAILEALNIDQSTCIPFTDDSSHFPLTYLVGNSLPAITSPFLKTSFGEKNEWPISVQCTGASYTEKKNQVDLGNARQRMKHCALWMSKSAEELEGIINDANVRVGAYLDEGLDLEVKVREVRGSELKNYESQAFVVENRGLSLSRISRIGDYVSKRLNIQYSGSPATEKSEKSDGFVQMVYVETDIDRILARLVDDLIEGKEPPKYIRDAIKKSF | not soluble |
| MAHHHHHHMGTLEAQTQGPGSMTPAAHPPRAAIADIAGHLPEQVLTNDVLAQLYPDWPAEKILAKTGIRERRIAAPRETAADLAYEAARKLFAQGAVGADQVDFVILCTQAPDYVLPTSACMLQHRLGIPTHAGALDVNLGCSGYVYGLSLAKGLVETGAARCVLLLTADTYSKYLHPLDKSVRTLFGDGASATAVIAEHGELERIGPFVFGTDGRGAPNLIVKAGLFREPKSADSAREHEDASGNVRTDEHLYMNGAEVMAFSLAEVPRAADRLLALAGEPRENIDCFVLHQANRFMLDALRKKMKIPEHKFPVLMEHCGNTVSSTLPLALETMRANGTLARGMRLMLLGFGVGYSWAGCLVNF | soluble |
| RPGGDAREPRKIILHKGSTGLGFNIVGGEDGEGIFVSFILAGGPADLSGELRRGDRILSVNGVNLRNATHEQAAAALKRAGQSVTIVAQYRPEEYSRFES | soluble |
| MKKEKLRTENISFQYPGAATYALKDVSFSLFEGEWVSVIGQNGSGKSTLAKLLNGLFLPEAGTITVNDTMILSEETVWDVRKQIGMVFQNPDNQFVGTTVQDDVVFGLENIGMPREQMVERLNQALRLVRMEDFLNDEPHSLSGGQKQRVAIAGVLALQPSILILDEATSMLDPQGRREVVETVRQLVNEKGITVLSITHDLEEAAQSDRVIILNKGEILEEGTPEQIFKSSHMLQEIGLDVPFSVKIAELLKRNEILLQNTHLTMESLVNELWRLHSKK | not soluble |
| MSEAGSTVPFDFSSYGGEIDDLATRGLADAAGAEGIRTAMARVTGRAEEVQASRLSANEQNLIACGPGCADCCRVNVTVLLPEAIAIAAYLEEIGKGDETNAITMRVADTAARVRWMEDDERIRAGVACPFLDGRGWCAIYPVRPLTCRALSSTDPEQCRRALAAHCSDEEETIVVNIFQKFLMEGTFQSLARAMERAGLDTTGRELCRSVTRCLLDPRLADDFLAGKRIKFPESLEHHHHHH | soluble |
